# Results from the DeepSol protein solubility set.
# Assay: soluble on expression in E. coli; label from the status in PepcDB or PDB records
row,Sequence,soluble on expression in E. coli
1,MEFSIKQSPLSVQSVVKCIKMKQAPEILGSANGKTPSCEVNRECSVFLSKAQLSSSLQEGVMQKFNGHDALPFIPADKLKDLTSRVFNGEPGAHDAKLRFESQEMKGIGTPPNTTPIKNGSPEIKLKITKTYMNGKPLFESSICGDSAADVSQSEENGQKPENKARRNRKRSIKYDSLLEQGLVEAALVSKISSPSDKKIPAKKESCPNTGRDKDHLLKYNVGDLVWSKVSGYPWWPCMVSADPLLHSYTKLKGQKKSARQYHVQFFGDAPERAWIFEKSLVAFEGEGQFEKLCQESAKQAPTKAEKIKLLKPISGKLRAQWEMGIVQAEEAASMSVEERKAKFTFLYVGDQLHLNPQVAKEAGIAAESLGEMAESSGVSEEAAENPKSVREECIPMKRRRRAKLCSSAETLESHPDIGKSTPQKTAEADPRRGVGSPPGRKKTTVSMPRSRKGDAASQFLVFCQKHRDEVVAEHPDASGEEIEELLRSQWSLLSEKQRARYNTKFALVAPVQAEEDSGNVNGKKRNHTKRIQDPTEDAEAEDTPRKRLRTDKHSLRKRDTITDKTARTSSYKAMEAASSLKSQAATKNLSDACKPLKKRNRASTAASSALGFSKSSSPSASLTENELLWEPTPVKLDLNPAALYCT,soluble
2,MSMEDPFFVVKGEVQKAVNTAQGLFQRWTELLQGPSAATREEIDWTTNELRNNLRSIEWDLEDLDETISIVEANPRKFNLDATELSIRKAFITSTRQIVRDMKDQMSASS,soluble
3,GMGMEHKTYEADLFVWCQQQADGLRALSRSRRDLPDDLDLEHIAEEIEDMGRSELREATSLVRQICVRVIMAMSAPEAPDRARWRSEVVSWHNLLLDTITPGMIDRIDIGVIWRRAVSEAKAALIEINVAPQAGLSFQAPLPADHFLDEDFDYDATVARLGPTA,soluble
4,MTKSKIIEIGPLVPAFEEEKIVILFGPTATNELREISVIHEFEAAPQSALSKGNTLQIGDQVYIIEEVGTEANKNLEELGHISIYFRSGQNEVLPGAIVVSPEVFPTLAIGDTIQ,not soluble
5,ELNKNFDAVVDTAIARWRRSGPVVAMTRPDLKHGRGGLRDFELIKALALGHLCNLPQLDAQHQLLLDARTLLHVHARRSRDVLDPEFAVDVAMDLGFVDRYHLGREIADAARAIDDGLTTALATARGILPRRTGFAFRNASRRPLDLDVVDANGTIELSKKPDLNDPALPLRVAAAAATTGLPVAESTWVRLNECPPLPEP,not soluble
6,MIAPQPPMHLSGRCVCPSDPQFVEEKGIQAEDLVIGALENAFQECDDVIGRELEASGQVGGCTALVAVFLQGKLYVANAGDSRAILVRRHEIRQLSSEFTPETERQRIQQLAFTYPELLAGEFTRLEFPRRLKGDDLGQKVLFRDHHMRGWSYKRVEKSDLKYPLIHGQGRQARLLGTLAVSRGLGDHQLRVLDTDIQLKPFLLSIPQVTVLDVHQLAVQEEDVVVMATDGLWDVLSNEQVALLVRSFLTGNQKDDPHRFSELAKMLIHNTQGKDNGATGEGQVSYDDVSVFVIPLHSQAQEGSGH,soluble
7,MSLKHPDPAQKVEGTTATTPTKVAAFFDLDKTIIAMSSTYAYGREFMNSGLISPVEALQLSLAQATYMFAGHTSEQMDNTRDQLTAMIRGWEVQQVRSIAEETMHSVVTPTIYAEARELIEHHQELGHDVIIISASVKELVEPIARELGVHKTVTTVLEAHDGMYTGEVLFYCKGDAKAQSILDLAEANNYDLSLSFAYSDSFTDLPMLEAVGNPAAVNPDRALKKIALEQGWKILSFKNPEPLFQEGHHHHHH,soluble
8,MGSDKIHHHHHHCASSLTQGKYVDGTHLVQAKGKKSQIVLEVKVDQGKIVDIKTKSHKETESLYLNAERLLPRIVANNGHEGIDAVSGATYSSNGILKAVNDLPRASSVQPEYVAVGAKEEQGDDFKLKWSIQPKLGLLVGDYYYEEARFRQGHMGSMTIVTNSQDRNDVILAEFNESGRPNYYTRLYQDVPKRMSEYNFSMGKKKGTAWVQSALTMEKLMVEQDKLTFEPNPNHDPKLANKLKEPNRLKYLGIDVVAGASNSIQQSMIPLTAKIHHKIHGEGTRLKFYQLAEKLVNEKGRWTGITAMLRLVVDPASKQIIKAHFDEIFADEKAQIQDASLKKFYRQSKYDSINYSEPARIGFNVMIDALNAHLQAGGSLFDINDLPATGDSGNYAATGFTKRSSSWDIYLNQAEQLYKKMRLDGVIAEHKHPAAK,not soluble
9,MSLRAQSTNTIGVLVSRISNPFFAQLFDALERELNGYGFQVMVMQTHDDALAEQHFLDKLKQQQVDGVILASIENQQLVAQLSATYANQMVLLNEEATDIGIPMISLNHYQATKDALAYLYHQGHRRIAYATGGDFPSTHHGRSRTQAYLDFCEEQQLVVNNNWVFAQQHTIADGQALGKQLASLNPSDRPTAVFTNSDEVAVGVIDELQQQHFRVPDDMAVMGYDDQPFAAVAQVPLTTVRQPVAAMAQLAVDQLLHHLGRLQRPELAIDLSLDLIKRKSAEGHHHHHH,soluble
10,MSLMLYFITFREARVLLKSRDLALINVDLMKTGKKIRVRVSKDYVEFPDGSRVKKEIIKRIAEDEGNVYFVRDGEVFKAAIAGEHFYKLVPTIPPTIEINGIRMHRTKGTDPLKDTIAKVNTVKPREGEVVLDTCMGLGYTAIESAKRGARVITIEKDPNVIELAKINPWSRELFESPKIKILQGDSFDLIKKFEDESFDVIIHDPPRFSLAGELYSEEFYMEMFRVLKPGGRLFHYVGNPGKRYRGLDLQKGVMERLRRVGFMKVRRVQEALGVFALKPSLEEGHHHHHH,not soluble
11,MSLKAPVDFEQEVAPLLSQRCVSCHSPNIKKGELSLAGPEDLLANGYVVPGDPAGSYLLEVVSPAGDDPAAMPKLGDALAEPEVALLRRWIEQGAVWPDGFVIREASKADRSWWSLQPLADIHPPEVAAAPAAWRQNPIDRFVWAKLSEANLKPNSPADRRTLIRRATFDLTGLPPTAEEIDTFVASDSPDAYPQLIDRMLASPRYGERWGRHWLDVIRFGESRGFERNQIITNLWPFRDYVIRSINEDKPFDQFIREHLAGDVIAPNTPQVEVGSAFLVAGPYDDVGNQDPAQAAQIRANTIDEMIRASSEAFLGLTIGCARCHDHKFDVISQRDYYAMYATFAGVKHGERAVATSEQREGHHHHHH,not soluble
12,MSLKLYYCRGACSLVVRIILNDLGLNFQDEEVDLKVKKTAGGDDFFKINPKGAVPTLVLDNGDILTENQVILQYLADTTPGQKLLAAVGESKRYHTLEWLNYISTELHKSLGMFFNPTVSEEIKSKILTPLVMTRFAYTNTRLEKGSYLMGNEFSLPDAYLFVMVSWAKYFKLDLSQFEHLTKFMDLMLARSSVAKSLQQEKLEGHHHHHH,soluble
13,MTYGIVIVSHSPEIASGLKKLIREVAKNISLTAIGGLENGEIGTSFDRVMNAIEENEADNLLTFFDLGSARMNLDLVSEMTDKELTIFNVPLIEGAYTASALLEAGATFEAIKEQLEKMLIEKRSHHHHHH,soluble
14,MSLNHSVRKCGYLRKQKHGHKRFFVLRGPGAGGDEATAGGGSAPQPPRLEYYESEKKWRSKAGAPKRVIALDCCLNINKRADAKHKYLIALYTKDEYFAVAAENEQEQEGWYRALTDLVSEGRAAAGDAPPAAAPAASCSASLPGALGGSAGAAGAEDSYGLVAPATAAYREVWQVNLKPKGLGQSKNLTGVYRLCLSARTIGFVKLNCEQPSVTLQLMNIRRCGHSDSFFFIEVGRSAVTGPGELWMQADDSVVAQNIHETILEAMKALKELFEFRPREGHHHHHH,soluble
15,MSLNQIYQLTKPKFINVKYQEEAIDQENHILIRPNYMAVCHADQRYYQGKRDPKILNKKLPMAMIHESCGTVISDPTGTYEVGQKVVMIPNQSPMQSDEEFYENYMTGTHFLSSGFDGFMREFVSLPKDRVVAYDAIEDTVAAITEFVSVGMHAMNRLLTLAHSKRERIAVIGDGSLAFVVANIINYTLPEAEIVVIGRHWEKLELFSFAKECYITDNIPEDLAFDHAFECCGGDGTGPAINDLIRYIRPQGTILMMGVSEYKVNLNTRDALEKGLILVGSSRSGRIDFENAIQMMEVKKFANRLKNILYLEEPVREIKDIHRVFATDLNTAFKTVFKWEEGHHHHHH,soluble
16,MGSDKIHHHHHHMILYFSGTGNSRYVARKIAQELNDELISLNQLIKDEKTDELISADKPFIFVCPTYAWRLPIVVTDFIKETKFLGSNRVYFVMTCGGDTAKSINYIQKLCKYKEWQLKGMAEIKMPENYIALFSTTDKETSKQMIKEADKQIYRIISDIRNENEFETITPSGLGGTIKSGIINTVFYKTIISAKGFHYTDKCIGCGKCVELCPLNNINLKNKKPVWKNNCTHCMACICGCPTEAIEYKNKTQNRERYYLE,not soluble
17,MRNFKKSDKLNNVSYDVRGPVLEEAERMQEEGIRILKLNTGNPAPFGFDAPNEIVRDMIVNVRDSEGYSDSKGIFSARKAIEQYCQLKKFPNVTINDIYTGNGVSELITMCMQGLLNNGDEVLVPMPDYPLWTASVSLAGGTPVHYICDEQAEWYPDIDDIKSKITSNTKAIVIINPNNPTGALYPKELLLEIVEVARQNDLIIYSDEIYDRLVMDGLVHVPIATLAPDLFVVTLNGLSKSHRVAGFRCGWMVLSGDKSRVKGYIEGLNMLASMRLCSNVLSQQIIQTALGGYQSVDGLLLPGGRIYEQREFIYNAINDIPGLSAVKPKAAFYIFPKIDTAKFDIYDDEKFVLDFLHKHHILLVHGGGFNWQQPDHFRIVYLPKMEDLKTTADKMREFLSTYKQK,not soluble
18,MGSDKIHHHHHHMAILTITKQFGSGGGEIGSAVANLLGYEYIPLKRVFEEAGQAGNRIKKLADEVSKSVPGLWERTDWSFLAFVAFSQSTILNYALQNNIVVMTRGGNMLLKSIPHALRILVTAPFDVRVRRIMEREEISEEIAVMMAKKADREMAVTIQQIYGTNWMDPTEYDQVIDTSKQNWNEIARSLKDSLMAKEKDFTAEAQKILNMKALATYIKVKIMTSPAFITPTLEVEMKGDILVISGVVRNPDQHKRIEEEVKKLAGDRYVEFHIHYRGSWPFRGI,not soluble
19,MSLSGFDADAIDRTTAADLAEVGSDKWTRYPGCIGAFIAEMDYGLAPCIQQAIDSACDHCKLGYIPEPWKRRVAEACAGWQKSHYGWDVDPDIIRVVPDVLEAYEIFLRELVGAGNAVVVPTPAYMPFLSVPKLYDVDVIEIEMLQGTDETTGEREWLFDFNAIERAFAAGCHAFVLCNPHNPIGKVLTLAEEQRLCELAERYDVRIFNDEIHAPFVFEGRHIPYPTISKAAARQSMTATSASKSFNIPGTKCAQVLLTNPADREMWAERAEWSEHQTATIGAIATTTAYNEGDPWFQDALSYVRRNLGLFDKQMRTRFSGVGYIRPRGTYIAWLDFGPLGIDDPAAYFLEKAKVALTDGRSCGRAGAGCVRVNMAMPYPLLVDCLNRMHDALQADGEGHHHHHH,soluble
20,MAHHHHHHHRSEQIAAVRRMVEAYNTGKTDDVADYIHPEYMNPGTLEFTSLRGPELFAINVAWVKKTFSEEARLEEVGIEERADWVRARLVLYGRHVGEMVGMAPTGRLFSGEQIHLLHFVDGKIHHHRDWPDYQGTYRQLGEPWPETEHRRP,soluble
21,MAHHHHHHMLHTTRLWLGGYMMYHRKAMGTMKYSKWKGAHGGISHFYGRTPMVEEVRPNEPITLVDRRIMHYVHHSRLRHFQLFRSYQEKSNSTECKLREGEMLRRRWHRRLQKSFIAFMQFKTMKVLEDQARLVNTYGQAAVNAALGDPWNATDNVARERKSAAVRRQVRALPMVNVVPKHVATMKQIHNDRFNYRWRVN,not soluble
22,MQGNTMYKFEVFKDKAGEFRFRFRASNGEIMFSSEGYKAKASVLNAIESIKKNSPGAETVDQTTATV,soluble
